From patent US20160151487A1

Legend:
[1] = molecular target: human neonatal Fc-receptor (FcRn), soluble extracellular domain with His-Avi Tag, co-expressed with beta-2-microglobulin (human) (UniProt P55899); assay: FcRn affinity chromatography
[2] = molecular target: human neonatal Fc-receptor (FcRn), soluble extracellular domain with His-Avi Tag, co-expressed with beta-2-microglobulin (human) (UniProt P55899); assay: FcRn affinity chromatography, pH gradient

Chain of human neonatal Fc-receptor (FcRn), soluble extracellular domain with His-Avi Tag, co-expressed with beta-2-microglobulin (human) (P55899 24-297 limits assumed, chain 1 of 2): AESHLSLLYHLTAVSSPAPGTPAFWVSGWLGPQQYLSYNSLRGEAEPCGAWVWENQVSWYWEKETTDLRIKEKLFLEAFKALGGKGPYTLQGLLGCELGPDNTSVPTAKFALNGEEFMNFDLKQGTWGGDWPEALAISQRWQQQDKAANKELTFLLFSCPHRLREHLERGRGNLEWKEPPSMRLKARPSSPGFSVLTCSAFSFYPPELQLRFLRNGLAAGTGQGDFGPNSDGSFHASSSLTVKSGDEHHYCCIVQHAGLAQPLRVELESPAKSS
Chain of human neonatal Fc-receptor (FcRn), soluble extracellular domain with His-Avi Tag, co-expressed with beta-2-microglobulin (human) (P61769 21-119 limits assumed, chain 2 of 2, further chain): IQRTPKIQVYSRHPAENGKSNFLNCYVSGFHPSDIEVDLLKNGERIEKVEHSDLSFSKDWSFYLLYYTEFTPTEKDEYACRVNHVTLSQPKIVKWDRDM

Substance | retention time on FcRn affinity column [1] | further results
IgG1 antibody (not identified) with L234A/L235A/P329G and H435A in both Fc-region polypeptides |  | relative shift of retention time [1]: 0.3 to 0.4 min
bispecific antibody (not identified, knobs-into-holes), one chain with L251D/L314D/L432D | 46.3 min | 
IgG1 antibody (not identified) with L234A/L235A/P329G and I253A in both Fc-region polypeptides |  | relative shift of retention time [1]: 0.3 to 0.4 min
bispecific antibody (not identified, knobs-into-holes), one chain with I253A | 48.8 min | 
bispecific antibody (not identified, knobs-into-holes), one chain with H310A | 48.4 min | 
bispecific antibody (not identified, knobs-into-holes), one chain with I253A/H310A/H435A | 46.6 min | 
bispecific antibody (not identified, knobs-into-holes), one chain with H435A | 48.8 min | 
IgG1 antibody (not identified) with L234A/L235A/P329G and Y436A in both Fc-region polypeptides |  | FcRn-affinity column retention time [2]: 41.3 min
bispecific antibody (not identified, knobs-into-holes), one chain with H310A/H433A/Y436A | 46.7 min | 
bispecific antibody (not identified, knobs-into-holes), one chain with M252Y/S254T/T256E | 56.2 min | 
bispecific antibody (not identified) assembled using the knobs-into-holes technology, no FcRn affecting mutation | 51.8 min | 
